In patent US9084745B2, “Modulation of the Vps10p-domain for the treatment of cardiovascular disease” (H. Lundback A/S, priority 2008, dated 2015):

Molecular target: T1, recombinant human sortilin (Homo sapiens, UniProt Q99523)
T1 sequence (Q99523 78-755 limits assumed): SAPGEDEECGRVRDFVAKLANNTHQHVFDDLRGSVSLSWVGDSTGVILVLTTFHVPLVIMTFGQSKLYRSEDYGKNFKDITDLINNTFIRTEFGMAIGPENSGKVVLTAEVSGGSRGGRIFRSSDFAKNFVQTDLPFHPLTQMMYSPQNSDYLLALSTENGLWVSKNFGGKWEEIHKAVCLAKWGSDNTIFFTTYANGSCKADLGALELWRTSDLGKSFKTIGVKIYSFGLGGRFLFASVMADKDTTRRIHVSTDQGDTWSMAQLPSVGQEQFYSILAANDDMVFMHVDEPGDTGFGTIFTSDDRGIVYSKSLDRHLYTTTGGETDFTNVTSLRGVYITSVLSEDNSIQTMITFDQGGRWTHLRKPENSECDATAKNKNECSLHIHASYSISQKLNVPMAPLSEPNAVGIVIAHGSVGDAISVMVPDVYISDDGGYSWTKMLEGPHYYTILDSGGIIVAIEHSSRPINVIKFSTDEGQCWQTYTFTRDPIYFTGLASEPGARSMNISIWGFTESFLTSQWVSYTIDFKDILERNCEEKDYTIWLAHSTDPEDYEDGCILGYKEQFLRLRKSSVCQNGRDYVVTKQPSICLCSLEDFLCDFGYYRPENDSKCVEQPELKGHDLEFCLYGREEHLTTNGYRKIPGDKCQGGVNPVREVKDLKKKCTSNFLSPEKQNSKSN
Experiment: Surface plasmon resonance analysis of ApoB binding to immobilized sortilin
Conditions: ApoB 10, 20, 50 nM, on and off rates recorded, displayed experiment
Method: FIG. 5b: Characterization of ApoB binding to recombinant human sortilin (30). Sortilin was immobilized on a BIAcore CM5 sensorchip at a density of […]. A) After baseline calibration in running buffer (10 mM Hepes, 150 mM NaCl, 1 mM EGTA, 1.5 mM CaCl2, 0.005% P20, pH 7.4) 10 μg/ml rabbit anti-sortilin IgG (12) or running buffer alone was applied to the chip. At t=700 sec the response units obtained in the presence of anti-sortilin IgG was arbitrarily set at 100 and 50 nM ApoB was applied to the flow cell pre-incubated with antibody or with buffer alone. Association of ApoB binding was measured until 1200 sec, after which the solute was changed to buffer to allow dissociation. […]
Determination of direct binding of ligand to immobilized protein can be performed by e.g. surface plasmon resonance analysis (Biacore, Sweden) using CaHBS as standard running buffer (10 mM HEPES, pH 7.4, 140 mM NaCl, 2 mM CaCl2, 1 mM EGTA, and 0.005% Tween-20). […] In another approach, inhibition of an established ligand can be monitored in the absence or presence of putative inhibitors. […] The data collected are analysed by fitting of sensorgrams for affinity estimations and inhibitory potential using the Biaevaluation version 3.1 program. We evaluated the binding properties of ApoB to sortilin (FIG. 5b). […]

Kd: 0.4 nM
Substance: ApoB: apolipoprotein B, the part of LDL that binds to the LDL receptor; tested as sortilin ligand
